# Data from publication PMC5030711, “Investigation of SP94 Peptide as a Specific Probe for Hepatocellular Carcinoma Imaging and Therapy” (Scientific Reports, 2016).
# Several values for one entry are separate records, joined by “and”; a condition that tells them apart may be missing. Identical values can stand only once. Entries after “also recorded” stand apart in the source; their conditions may differ. Residues, ends and D or L forms follow the SMILES beside them. *: point of attachment. HYNIC = NNc1ccc(C(=O)*)cn1
# What was measured:
# Huh-7 cells = assay type: binding, human; conditions: 2 h
# Procedure: The binding affinity of HYNIC-SP94 was assessed via a competitive displacement assay with ^99mTc tricine-EDDA/HYNIC-SP94[35]. Briefly, Huh-7 cells (1 × 10^6) and ^99mTc tricine-EDDA/HYNIC-SP94 (370 kBq) were added to each test tube in the presence of increasing concentrations of the SP94 peptide (from 0.001 nM to 10000 nM) and incubated for 2 h at 37 °C. To remove unbound ^99mTc tricine-EDDA/HYNIC-SP94, the cells were washed three times with cold PBS (1×, pH 7.2) and then centrifuged (600 rpm, 5 min). Radioactivity was determined using a γ-counter. The IC50 value was calculated by fitting experimental data with nonlinear regression using GraphPad Prism (GraphPad Software, San Diego, CA, USA).
# [1] = In vivo stability (RP-HPLC of plasma); design: species or system balb/c mice; conditions: within 60 min after tail vein injection (~30 MBq/mouse)
# Procedure: The in vivo stability of ^99mTc tricine-EDDA/HYNIC-SP94 was evaluated in balb/c mice. ^99mTc tricine-EDDA/HYNIC-SP94 (~30 MBq/mouse) in 0.1 mL of saline was injected via the tail vein. Blood was then taken from the heart 10, 30, 60, 120 and 240 min after injection under anesthesia. Blood was collected in a heparin tube and immediately centrifuged (5000 rpm, 5 min) to obtain plasma. A total of 400 μL methanol/trichloromethane (V/V: 4/1) was added to 400 μL of plasma, fully mixed and centrifuged (5000 rpm, 5 min). RP-HPLC analysis was performed with 20 μL supernatant loading filtered by a 0.22 μm filter. The RP-HPLC was equipped with a Zorbax Eclipse XDB-C18 column (4.6 × 150 mm) and the following gradients were used at a flow rate of 1 mL/min: 98% solvent A (0.1% trifluoroacetic in 100% water) and 2% solvent B (0.09% trifluoroacetic in 80% ACN and 20% water): 0~5 min; 2% solvent A and 98% solvent B: 5~10 min; 98% solvent A and 2% solvent B: 10~15 min.
# [2] = In vitro stability of ^99mTc-labeled complexes (radio-TLC); assay type: in vitro ADME; conditions: PBS, normal saline and FBS, 37 °C, 1-12 h
# Procedure: The in vitro stability of the radiolabeled peptide was tested by incubating it in PBS, saline and FBS for 1, 2, 4, 6 and 12 h at 37 °C. After incubation, ^99mTc-labeled complexes were assessed by radio-TLC. Results were plotted as the RCP (%) at different time points.
# Huh-7 tumor-bearing mice = assay: Biodistribution study; assay type: in vivo, balb/c nude mice; conditions: mean ± SD; for Tumor uptake: Huh-7 tumor; for Tumor/muscle: ratio
# Excerpt: Four- to six-week-old male athymic nude mice were used for preparation of the xenograft tumor models. Huh-7 and Hela cells were subcutaneously injected at a concentration of 5 × 10^6 cells/mouse in the right front flank of the mice. The mice were ready for biodistribution and microSPECT/CT imaging study when the tumors reached an average diameter of 0.8~1.0 cm (3~4 weeks after inoculation). Animal care and experimental procedures were accordant with the Helsinki Declaration and were approved by the institutional animal care committee.
# Fifteen Huh-7 tumor-bearing mice were randomly divided into three groups. ^99mTc tricine-EDDA/HYNIC-SP94 (~0.74 MBq/mouse) in 0.1 mL of saline was injected via tail vein. At 0.5 and 1.5 h p.i., the mice were anesthetized via 2% isoflurane and sacrificed by cervical dislocation. Immediately after sacrifice, the blood, tumors and organs of interest (heart, lungs, liver, spleen, stomach, small intestine, large intestine, kidneys, muscle and thyroid) were harvested, washed with saline and weighed. Radioactivity was determined using a γ-counter. To determine the specific uptake of ^99mTc tricine-EDDA/HYNIC-SP94, 5 mice received an intravenous injection of 200 μg of unlabeled HYNIC-SP94 as a blocking agent 30 min prior to injection of ^99mTc tricine-EDDA/HYNIC-SP94 (~0.74 MBq/mouse). The mice were sacrificed 30 min p.i. and the experiments performed as described above. Absorption of organs and tissues was calculated as a percentage of the injected dose per gram of tissue mass (%ID/g).
# [3] = In vitro stability of ^188Re-HYNIC-SP94 (radio-TLC); assay type: in vitro ADME; conditions: FBS, room temperature, 48 h, mean ± SD
# Procedure: The in vitro stability of ^188Re-HYNIC-SP94 was evaluated by incubating ^188Re-HYNIC-SP94 in normal saline and FBS at room temperature. RCP was analyzed by radio-TLC at 1, 4, 8, 18, 26 and 48 h after incubation to determine the stability.
# [4] = 0.5 h p.i., blocking: 200 μg unlabeled HYNIC-SP94 i.v. 30 min prior
smiles,measurement,setting,value
"CC[C@H](C)[C@H](NC(=O)[C@H](CO)NC(=O)[C@H](Cc1ccccc1)NC(=O)[C@H](CO)NC(=O)c1ccc(NN)nc1)C(=O)N[C@H](C(=O)N[C@@H](Cc1c[nH]cn1)C(=O)N[C@H](C(=O)N1CCC[C@H]1C(=O)N[C@H](C(=O)N[C@@H](CC(C)C)C(=O)N1CCC[C@H]1C(=O)N[C@@H](CC(C)C)C(=O)O)[C@@H](C)CC)[C@@H](C)O)[C@@H](C)CC [HYNIC-SP94, 6-hydrazinonicotinic acid-SP94] ({HYNIC}-SFSIIHTPILPL-OH)",IC50,Huh-7 cells,4.49 ± 0.2 nM
"CC[C@H](C)[C@H](NC(=O)[C@H](CO)NC(=O)[C@H](Cc1ccccc1)NC(=O)[C@H](CO)NC(=O)c1ccc(NN)nc1)C(=O)N[C@H](C(=O)N[C@@H](Cc1c[nH]cn1)C(=O)N[C@H](C(=O)N1CCC[C@H]1C(=O)N[C@H](C(=O)N[C@@H](CC(C)C)C(=O)N1CCC[C@H]1C(=O)N[C@@H](CC(C)C)C(=O)O)[C@@H](C)CC)[C@@H](C)O)[C@@H](C)CC [^99mTc tricine-EDDA/HYNIC-SP94, metal not drawn] ({HYNIC}-SFSIIHTPILPL-OH)",radiochemical purity (RCP) maintained in vivo,[1],about 66%
same,in vitro stability (RCP),[2],highly stable; also recorded: slightly better
same,Blood uptake,"Huh-7 tumor-bearing mice; 0.5 h p.i., blocking",0.99 ± 0.12 %ID/g
same,Blood uptake,"Huh-7 tumor-bearing mice; 0.5 h p.i., non-blocking",1.17 ± 0.37 %ID/g
same,Blood uptake,"Huh-7 tumor-bearing mice; 1.5 h p.i., non-blocking",0.49 ± 0.08 %ID/g
same,Heart uptake,Huh-7 tumor-bearing mice; [4],0.58 ± 0.03 %ID/g
same,Heart uptake,"Huh-7 tumor-bearing mice; 0.5 h p.i., non-blocking, i.v. ~0.74 MBq/mouse",0.54 ± 0.13 %ID/g
same,Heart uptake,"Huh-7 tumor-bearing mice; 1.5 h p.i., non-blocking",0.34 ± 0.03 %ID/g
same,Tumor uptake,Huh-7 tumor-bearing mice; [4],0.34 ± 0.09 %ID/g
same,Tumor uptake,"Huh-7 tumor-bearing mice; 0.5 h p.i., non-blocking",1.02 ± 0.26 %ID/g
same,Tumor uptake,"Huh-7 tumor-bearing mice; 1.5 h p.i., non-blocking",0.74 ± 0.07 %ID/g
same,Kidney uptake,"Huh-7 tumor-bearing mice; 0.5 h p.i., blocking",7.58±2.25 %ID/g
same,Kidney uptake,"Huh-7 tumor-bearing mice; 0.5 h p.i., non-blocking",7.40 ± 2.66 %ID/g
same,Kidney uptake,"Huh-7 tumor-bearing mice; 1.5 h p.i., non-blocking",6.14 ± 0.10 %ID/g
same,Large intestine uptake,"Huh-7 tumor-bearing mice; 0.5 h p.i., blocking",0.54 ± 0.08 %ID/g
same,Large intestine uptake,"Huh-7 tumor-bearing mice; 0.5 h p.i., non-blocking",0.70 ± 0.09 %ID/g
same,Large intestine uptake,"Huh-7 tumor-bearing mice; 1.5 h p.i., non-blocking",0.48 ± 0.02 %ID/g
same,Liver uptake,"Huh-7 tumor-bearing mice; 0.5 h p.i., blocking",2.07 ± 0.20 %ID/g
same,Liver uptake,"Huh-7 tumor-bearing mice; 0.5 h p.i., non-blocking",2.39 ± 1.55 %ID/g
same,Liver uptake,"Huh-7 tumor-bearing mice; 1.5 h p.i., non-blocking",1.98 ± 0.15 %ID/g
same,Lung uptake,"Huh-7 tumor-bearing mice; 0.5 h p.i., blocking",2.06 ± 0.18 %ID/g
same,Lung uptake,"Huh-7 tumor-bearing mice; 0.5 h p.i., non-blocking",2.10 ± 0.43 %ID/g
same,Lung uptake,"Huh-7 tumor-bearing mice; 1.5 h p.i., non-blocking",1.45 ± 0.04 %ID/g
same,Muscle uptake,"Huh-7 tumor-bearing mice; 0.5 h p.i., blocking",0.23 ± 0.05 %ID/g
same,Muscle uptake,"Huh-7 tumor-bearing mice; 0.5 h p.i., non-blocking",0.30 ± 0.05 %ID/g
same,Muscle uptake,"Huh-7 tumor-bearing mice; 1.5 h p.i., non-blocking",0.16 ± 0.02 %ID/g
same,Small intestine uptake,"Huh-7 tumor-bearing mice; 0.5 h p.i., blocking",0.78 ± 0.11 %ID/g
same,Small intestine uptake,"Huh-7 tumor-bearing mice; 0.5 h p.i., non-blocking",0.97 ± 0.22 %ID/g
same,Small intestine uptake,"Huh-7 tumor-bearing mice; 1.5 h p.i., non-blocking",0.73 ± 0.07 %ID/g
same,Spleen uptake,"Huh-7 tumor-bearing mice; 0.5 h p.i., blocking",1.05 ± 0.27 %ID/g
same,Spleen uptake,"Huh-7 tumor-bearing mice; 0.5 h p.i., non-blocking",0.84 ± 0.30 %ID/g
same,Spleen uptake,"Huh-7 tumor-bearing mice; 1.5 h p.i., non-blocking",0.67 ± 0.04 %ID/g
same,Stomach uptake,"Huh-7 tumor-bearing mice; 0.5 h p.i., blocking",0.84 ± 0.06 %ID/g
same,Stomach uptake,"Huh-7 tumor-bearing mice; 0.5 h p.i., non-blocking",0.85 ± 0.18 %ID/g
same,Stomach uptake,"Huh-7 tumor-bearing mice; 1.5 h p.i., non-blocking",0.68 ± 0.09 %ID/g
same,Thyroid uptake,"Huh-7 tumor-bearing mice; 0.5 h p.i., blocking",0.52 ± 0.04 %ID/g
same,Thyroid uptake,"Huh-7 tumor-bearing mice; 0.5 h p.i., non-blocking",0.47 ± 0.09 %ID/g
same,Thyroid uptake,"Huh-7 tumor-bearing mice; 1.5 h p.i., non-blocking",0.27 ± 0.03 %ID/g
same,Tumor/muscle,"Huh-7 tumor-bearing mice; 0.5 h p.i., blocking",1.56 ± 0.06
same,Tumor/muscle,"Huh-7 tumor-bearing mice; 0.5 h p.i., non-blocking",3.96 ± 0.06
same,Tumor/muscle,"Huh-7 tumor-bearing mice; 1.5 h p.i., non-blocking",4.55 ± 0.10
"CC[C@H](C)[C@H](NC(=O)[C@H](CO)NC(=O)[C@H](Cc1ccccc1)NC(=O)[C@H](CO)NC(=O)c1ccc(NN)nc1)C(=O)N[C@H](C(=O)N[C@@H](Cc1c[nH]cn1)C(=O)N[C@H](C(=O)N1CCC[C@H]1C(=O)N[C@H](C(=O)N[C@@H](CC(C)C)C(=O)N1CCC[C@H]1C(=O)N[C@@H](CC(C)C)C(=O)O)[C@@H](C)CC)[C@@H](C)O)[C@@H](C)CC [^188Re-HYNIC-SP94, metal not drawn] ({HYNIC}-SFSIIHTPILPL-OH)",RCP after incubation,[3],91.67 ± 2.36% and > 90%
